These results are taken from patent US20260049115A1 (UNIVERSITY OF CHICAGO, published 2026).

One assay has as its target T1, recombinant mouse IL-2Rα (mouse, UniProt P01590 22-236, limits assumed).
T1 construct: Bought recombinant protein; also called rm IL-2Rα
T1 sequence (looked up): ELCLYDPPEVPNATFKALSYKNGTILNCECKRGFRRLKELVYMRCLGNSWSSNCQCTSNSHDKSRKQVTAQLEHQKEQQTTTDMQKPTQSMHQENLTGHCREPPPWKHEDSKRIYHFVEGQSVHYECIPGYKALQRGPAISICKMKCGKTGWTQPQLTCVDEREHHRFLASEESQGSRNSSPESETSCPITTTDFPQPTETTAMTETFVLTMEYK
As to the kind of experiment: ELISA on plates coated with recombinant mouse IL-2Rα; apparent KD by nonlinear regression, one-site specific binding [panel C]. How it is done:
(§1) Detection of CBD-IL-2 binding to collagen proteins. The measurement is performed as described previously (Ishihara et al., Sci Transl Med 9:doi:10.1126/scitranslmed.aan0401, 2017). 96-well ELISA plates (Greiner Bio One) were coated with 10 μg/mL collagen I (EMD Millipore), collagen III (EMD Millipore), or 1 μg/mL recombinant mouse IL-2Rα (SinoBiological) in PBS for 1 h at 37° C., followed by blocking with 2% BSA in PBS with 0.05% Tween 20 (PBS-T) for 1 hr at RT. Then, wells were washed with PBS-T and further incubated with 10 μg/mL CBD- or unmodified-IL-2 for 1 hr at RT. After 3 washes with PBS-T, wells were incubated for 1 hr at RT with HRP-conjugated antibody against rat IgG (Jackson ImmunoResearch). After washes, bound CBD-IL2 and IL-2 were detected with tetramethylbenzidine substrate by measurement of the absorbance at 450 nm with subtraction of 570 nm. The apparent dissociation constant (KD) values were obtained by nonlinear regression analysis in Prism software (v7, GraphPad Software) assuming one-site specific binding.

Assay [1] concerns the target T2, collagen type III.
T2 construct: Bought protein; also called collagen III; type III collagen
Briefly: ELISA on plates coated with collagen III; apparent KD by nonlinear regression, one-site specific binding [panel C]. How it is done:
as §1

Assay [2] deals with T3, collagen type I.
T3 construct: Bought protein; also called collagen I; type I collagen
As to the kind of experiment: ELISA on plates coated with collagen I; apparent KD by nonlinear regression, one-site specific binding [panel C]. How it is done: as §1
Background: An ELISA detects its analyte on a solid surface through an enzyme-linked reagent.

In assay [3] the target is T3, collagen type I. As to the kind of experiment: SPR (Biacore X100), collagen I on CM5 chip, 1:1 Langmuir fit. Here is the method:
(§2) FIGS. 6A-6D. CBD-CCL4 fusion protein binds to collagen I and collagen III and maintains its activity. (A) WT CCL4 and CBD-CCL4 were analyzed by SDS-PAGE followed by Coomassie blue staining. (B,C) Affinity of CBD-CCL4 against (B) collagen I and (C) collagen III was measured by SPR. SPR chips were functionalized with collagen I (˜500 RU) and collagen III (˜700 RU), and the CBD-CCL4 was flowed over the chips at indicated concentrations. Curves represent the obtained specific responses (in resonance units (RU)) to CBD-CCL4. Experimental curves were fitted with 1:1 Langmuir fit model. Binding kinetics values [dissociation constants (KD) and rate constants (kₒₙ and koff)] determined from the fitted curves are shown. (D) GPCR activation assay comparing signaling of WT CCL4 and CBD-CCL4 in ThP1 monocytes. EC₅₀ values were calculated using a non-linear dose-response curve fit model. Each point represents mean±SEM, n=3.
(§3) CBD-CCL4 collagen binding measurements using SPR. SPR measurements were made with a Biacore X100 SPR system™ (GE Healthcare). Collagen I or collagen III was immobilized via amine coupling on a CM5 chip (GE Healthcare) for ˜1000 resonance units (RU) according to the manufacturer's instructions. […] Specific binding of CBD-CCL4 to collagen was calculated automatically using the response to a non-functionalized channel as a reference. […]
(In general: SPR reads the build-up and loss of mass on a sensor chip optically.)

For assay [4], the target named is T3, collagen type I. Briefly: SPR, collagen I immobilised on the chip, CBD-CCL4 flowed at 15.6 to 500 nM, 1:1 Langmuir fit [panel B]. Here is the method:
as §2, §3

The target in assay [5] is T2, collagen type III. As to the kind of experiment: SPR (Biacore X100), collagen III on CM5 chip, 1:1 Langmuir fit. Here is the method: as §2, §3
T2 sequence (P02461 154-1221): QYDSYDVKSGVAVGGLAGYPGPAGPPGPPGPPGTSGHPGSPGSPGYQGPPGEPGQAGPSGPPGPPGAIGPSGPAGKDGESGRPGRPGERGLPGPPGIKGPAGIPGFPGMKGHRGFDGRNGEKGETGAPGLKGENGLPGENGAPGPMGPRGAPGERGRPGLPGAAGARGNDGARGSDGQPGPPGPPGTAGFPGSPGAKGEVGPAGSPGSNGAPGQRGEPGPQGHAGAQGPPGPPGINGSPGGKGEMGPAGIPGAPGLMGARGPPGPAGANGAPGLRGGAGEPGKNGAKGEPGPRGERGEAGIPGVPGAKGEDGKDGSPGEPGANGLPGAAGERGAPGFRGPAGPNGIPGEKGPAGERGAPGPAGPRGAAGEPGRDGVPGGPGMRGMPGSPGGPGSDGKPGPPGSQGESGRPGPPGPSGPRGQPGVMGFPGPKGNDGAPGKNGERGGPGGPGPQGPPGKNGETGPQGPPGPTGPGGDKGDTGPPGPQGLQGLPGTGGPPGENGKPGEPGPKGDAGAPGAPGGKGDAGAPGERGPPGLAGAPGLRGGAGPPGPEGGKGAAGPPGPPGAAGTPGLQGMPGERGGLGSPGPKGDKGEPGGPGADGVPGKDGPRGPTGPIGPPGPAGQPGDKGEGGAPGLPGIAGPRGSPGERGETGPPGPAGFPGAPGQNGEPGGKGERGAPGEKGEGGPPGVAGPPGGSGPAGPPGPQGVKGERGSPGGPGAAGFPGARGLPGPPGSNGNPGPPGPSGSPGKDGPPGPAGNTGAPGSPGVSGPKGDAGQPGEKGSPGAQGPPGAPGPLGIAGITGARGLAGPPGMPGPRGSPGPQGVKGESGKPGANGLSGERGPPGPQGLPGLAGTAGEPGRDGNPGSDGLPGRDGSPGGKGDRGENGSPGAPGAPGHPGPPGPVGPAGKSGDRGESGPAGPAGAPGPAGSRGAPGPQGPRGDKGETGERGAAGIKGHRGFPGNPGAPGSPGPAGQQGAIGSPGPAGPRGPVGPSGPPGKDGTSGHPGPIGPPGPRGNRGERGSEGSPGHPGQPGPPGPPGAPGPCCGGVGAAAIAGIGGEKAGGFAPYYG
The target of assay [6] is T2, collagen type III. Briefly: SPR, collagen III immobilised on the chip, CBD-CCL4 flowed at 15.6 to 500 nM, 1:1 Langmuir fit [panel C]. How it is done: as §2, §3
In assay [7] the target is CCR5 on ThP1 human monocytes (human, UniProt P51681 1-352). Briefly: cell-based or functional assay.
Chain of CCR5 on ThP1 human monocytes (P51681 whole entry): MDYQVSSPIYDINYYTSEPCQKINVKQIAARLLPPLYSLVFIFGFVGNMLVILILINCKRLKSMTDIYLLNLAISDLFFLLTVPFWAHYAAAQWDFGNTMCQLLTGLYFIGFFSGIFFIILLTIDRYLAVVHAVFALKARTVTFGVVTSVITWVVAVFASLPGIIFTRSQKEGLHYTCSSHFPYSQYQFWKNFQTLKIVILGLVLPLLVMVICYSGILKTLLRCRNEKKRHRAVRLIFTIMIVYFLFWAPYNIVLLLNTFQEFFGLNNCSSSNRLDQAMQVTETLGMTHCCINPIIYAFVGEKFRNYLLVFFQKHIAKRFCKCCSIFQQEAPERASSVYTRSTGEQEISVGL

B1: wild-type mouse IL-2 (His-tagged) (ligand)
chain: PTSSSTSSSTAEAQQQQQQQQQQQQHLEQLLMDLQELLSRMENYRNLKLPRMLTFKFYLPKQATELKDLQCLEDELGPLRHVLDLTQSKSFQLEDAENFISNIRVTVVKLKGSDNTFECQFDDESATVVDFLRRWIAFCQSIISTSPQ
notes: The entry includes the C-terminal 6xHis tag as printed; also called wild-type IL-2; unmodified-IL-2
B1: the Kd with recombinant mouse IL-2Rα came out at 60 nM.

B2: CBD-fused IL-2 recombinant protein (the vWF A3 domain and mouse IL-2 fusion protein) (other)
chain: CSQPLDVILLLDGSSSFPASYFDEMKSFAKAFISKANIGPRLTQVSVLQYGSITTIDVPWNVVPEKAHLLSLVDVMQREGGPSQIGDALGFAVRYLTSEMHGARPGASKAVVILVTDVSVDSVDAAADAARSNRVTVFPIGIGDRYDAAQLRILAGPAGDSNVVKLQRIEDLPTMVTLGNSFLHKLCSGFVRIGGGSGGGSPTSSSTSSSTAEAQQQQQQQQQQQQHLEQLLMDLQELLSRMENYRNLKLPRMLTFKFYLPKQATELKDLQCLEDELGPLRHVLDLTQSKSFQLEDAENFISNIRVTVVKLKGSDNTFECQFDDESATVVDFLRRWIAFCQSIISTSPQ
notes: also called CBD-IL-2
As to B2, the values for the Kd with recombinant mouse IL-2Rα, in the assay with collagen type III [1] and in the assay with collagen type I [2] were 54.7 nM, 181 nM and 268 nM, respectively.

B3: CBD-CCL4 (human vWF A3 domain and murine CCL4 fusion protein) (other)
chain: CSQPLDVILLLDGSSSFPASYFDEMKSFAKAFISKANIGPRLTQVSVLQYGSITTIDVPWNVVPEKAHLLSLVDVMQREGGPSQIGDALGFAVRYLTSEMHGARPGASKAVVILVTDVSVDSVDAAADAARSNRVTVFPIGIGDRYDAAQLRILAGPAGDSNVVKLQRIEDLPTMVTLGNSFLHKLCSGFVRIGGGGSGGGGSAPMGSDPPTSCCFSYTSRQLHRSFVMDYYETSSLCSKPAVVFLTKRGRQICANPSEPWVTEYMSDLELNHHHHHH
notes: also called CBD-CCL4 fusion protein; vWF A3 domain-CCL4 fusion protein
B3: the Kd amounted to 33.4 nM with collagen type I [3] and 14.5 nM in the assay with collagen type III [5]. The dissociation rate constant (koff) (in general, the first-order rate constant of dissociation) with collagen type I [4] came out at 0.0031 s⁻¹; in the assay with collagen type III [6], 0.0078 s⁻¹. Further, the kon – broadly, the rate constant with which the complex forms – amounted to 95000 M⁻¹ s⁻¹ with collagen type I [4] and 540000 M⁻¹ s⁻¹ in the assay with collagen type III [6]. The “EC50, calcium flux (RFU) in ThP1 monocytes [panel D]” value in assay [7] was 7 nM.
